Results reported in patent EP4818200A1 (USWM CT, LLC, dated 2026).

How the values were obtained:
[1] = target: T1, … HLA-A*0201 complex (biotinylated soluble pHLA) (human, enzymatically biotinylated (BirA) on the C-terminal biotinylation tag); experiment: SPR (BIAcore 3000), soluble TCR over immobilised biotinylated pHLA, 25 °C
T1 construct: also called MAGE A4; not shown: C-terminal biotinylation tag

[2] = target: T2, … HLA-A*0201 complex (biotinylated soluble pHLA) (human, enzymatically biotinylated (BirA) on the C-terminal biotinylation tag); experiment: as above
T2 construct: also called MAGE-B2; not shown: C-terminal biotinylation tag

Row | Kd [1] [µM] | Kd [2] [µM] | Binder
1 | 17.2 | 198 | TCR2 (TCR) TCR alpha: MKNQVEQSPQSLIILEGKNCTLQCNYTVSPFSNLRWYKQDTGRGPVSLTIMTFSENTKSNGRYTATLDADTKQSSLHITASQLSDSASYICVVSGGTDSWGKLQF TCR beta: not shown
2 | 5.1 | 52.6 | TCR4 (TCR) TCR alpha: MKNQVEQSPQSLIILEGKNCTLQCNYTVSPFSNLRWYKQDTGRGPVSLTILTFSENTKSNGRYTATLDADTKQSSLHITASQLSDSASYICVVSGGTDSWGKLQF TCR beta: not shown
3 | 2.6 | 27.6 | TCR3 (TCR) TCR alpha: MKNQVEQSPQSLIILEGKNCTLQCNYTVSPFSNLRWYKQDTGRGPVSLTIVTFSENTKSNGRYTATLDADTKQSSLHITASQLSDSASYICVVSGGTDSWGKLQF TCR beta: not shown
